From PMC4872748, “NG2 proteoglycan as a pericyte target for anticancer therapy by tumor vessel infarction with retargeted tissue factor” (Oncotarget, 2016)

Biological target: T1, NG2 (nerve/glial antigen 2) proteoglycan (human (endogenous in HuAoSMC and G361), UniProt Q6UVK1 30-2322)
T1 construct: NG2 proteoglycan (CSPG4), transmembrane surface proteoglycan, endogenous on human cells; also called high-molecular melanoma associated antigen; CSPG4; source: endogenous, on human aortic smooth muscle cells (HuAoSMC) and G361-melanoma cells
T1 sequence (Q6UVK1 30-2322): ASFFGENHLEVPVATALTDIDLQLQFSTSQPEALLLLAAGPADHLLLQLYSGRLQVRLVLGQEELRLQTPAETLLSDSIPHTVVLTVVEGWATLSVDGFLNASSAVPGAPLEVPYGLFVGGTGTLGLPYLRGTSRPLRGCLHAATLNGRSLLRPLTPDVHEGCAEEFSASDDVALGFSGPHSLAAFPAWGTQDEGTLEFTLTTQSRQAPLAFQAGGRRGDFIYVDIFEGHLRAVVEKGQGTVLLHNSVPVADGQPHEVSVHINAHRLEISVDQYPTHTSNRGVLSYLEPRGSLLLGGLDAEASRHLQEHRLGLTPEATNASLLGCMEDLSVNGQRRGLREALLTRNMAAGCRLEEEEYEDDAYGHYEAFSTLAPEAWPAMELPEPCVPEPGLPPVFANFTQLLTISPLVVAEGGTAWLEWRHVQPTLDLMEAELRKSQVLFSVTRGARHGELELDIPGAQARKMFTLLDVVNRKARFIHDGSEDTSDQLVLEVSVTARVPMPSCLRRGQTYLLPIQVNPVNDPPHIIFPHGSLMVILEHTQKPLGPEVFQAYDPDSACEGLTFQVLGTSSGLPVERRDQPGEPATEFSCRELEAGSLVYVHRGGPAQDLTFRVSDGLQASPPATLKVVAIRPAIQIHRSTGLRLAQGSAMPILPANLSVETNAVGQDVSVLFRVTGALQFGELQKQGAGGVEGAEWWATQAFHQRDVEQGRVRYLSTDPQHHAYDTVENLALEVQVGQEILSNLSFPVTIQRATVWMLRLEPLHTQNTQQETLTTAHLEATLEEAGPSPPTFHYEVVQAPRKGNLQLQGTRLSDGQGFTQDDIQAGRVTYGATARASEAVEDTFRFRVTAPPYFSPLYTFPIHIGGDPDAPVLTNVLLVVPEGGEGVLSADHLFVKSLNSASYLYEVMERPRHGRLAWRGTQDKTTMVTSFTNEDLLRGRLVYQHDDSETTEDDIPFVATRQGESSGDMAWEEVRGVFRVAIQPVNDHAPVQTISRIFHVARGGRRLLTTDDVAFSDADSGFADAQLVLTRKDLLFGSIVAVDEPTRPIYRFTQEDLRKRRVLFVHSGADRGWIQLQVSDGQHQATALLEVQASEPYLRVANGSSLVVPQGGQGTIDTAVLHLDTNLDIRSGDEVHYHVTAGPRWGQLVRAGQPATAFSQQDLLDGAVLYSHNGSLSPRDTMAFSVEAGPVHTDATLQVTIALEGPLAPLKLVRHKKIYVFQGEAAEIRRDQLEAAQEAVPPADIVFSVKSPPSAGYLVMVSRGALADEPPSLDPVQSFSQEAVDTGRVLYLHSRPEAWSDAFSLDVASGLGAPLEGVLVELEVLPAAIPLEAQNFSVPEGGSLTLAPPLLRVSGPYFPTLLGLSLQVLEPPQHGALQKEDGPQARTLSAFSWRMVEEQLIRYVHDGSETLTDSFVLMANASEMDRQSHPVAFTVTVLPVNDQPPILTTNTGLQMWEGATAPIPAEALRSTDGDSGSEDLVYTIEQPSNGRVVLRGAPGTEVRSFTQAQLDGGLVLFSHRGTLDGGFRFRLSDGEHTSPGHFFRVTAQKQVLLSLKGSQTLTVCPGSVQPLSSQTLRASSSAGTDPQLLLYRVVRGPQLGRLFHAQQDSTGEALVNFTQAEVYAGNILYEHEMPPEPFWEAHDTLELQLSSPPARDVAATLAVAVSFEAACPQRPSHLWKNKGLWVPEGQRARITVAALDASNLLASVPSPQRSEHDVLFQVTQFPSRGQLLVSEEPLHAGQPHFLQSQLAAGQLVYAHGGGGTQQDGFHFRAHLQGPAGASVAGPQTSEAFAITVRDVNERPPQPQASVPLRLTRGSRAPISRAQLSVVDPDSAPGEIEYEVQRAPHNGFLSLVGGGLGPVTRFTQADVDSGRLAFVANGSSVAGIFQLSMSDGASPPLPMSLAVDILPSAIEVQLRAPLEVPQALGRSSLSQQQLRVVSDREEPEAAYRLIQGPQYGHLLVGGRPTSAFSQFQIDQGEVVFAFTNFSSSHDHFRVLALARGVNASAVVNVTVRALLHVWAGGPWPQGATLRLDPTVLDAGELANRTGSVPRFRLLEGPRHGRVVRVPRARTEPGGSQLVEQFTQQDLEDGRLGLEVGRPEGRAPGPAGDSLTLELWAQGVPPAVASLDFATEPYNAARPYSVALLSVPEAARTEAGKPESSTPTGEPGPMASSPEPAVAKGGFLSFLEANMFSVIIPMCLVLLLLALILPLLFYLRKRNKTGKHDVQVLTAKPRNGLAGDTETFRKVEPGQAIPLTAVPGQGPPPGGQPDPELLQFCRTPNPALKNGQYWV
Test: radioligand binding; increasing concentrations of 123I-tTF-TAA on cultivated HuAoSMC, gamma counter; nonlinear fit of total binding (GraphPad Prism 6: one site - total binding), an approximation
Details: one partner purified

B1: 123I-tTF218-TAA (other)
chain: SGTTNTVAAYNLTWKSTNFKTILEWEPKPVNQVYTVQISTKSGDWKSKCFYTTDTECDLTDEIVKDVKQTYLARVFSYPAGNVESTGSAGEPLYENSPEFTPYLETNLGQPTIQSFEQVGTKVNVTVEDERTLVRRNNTFLSLRDVFGKDLIYTLYYWKSSSSGKKTAKTNTNEFLIDVDKGENYCFSVQAVIPSRTVNRKSTDSPVECMGQEKGEFRTAASGVRSMH
modifications: 123I (iodinated; residues not stated)
Kd: ~785 nM
